These results are taken from patent US11261449B2, “Anti-cancer RNA aptamers” (CITY OF HOPE, priority 2015, dated 2022).

In one series the test system is pancreatic cancer. To be noted: cited from earlier work.
For a further series, the system named is Panc-1. Briefly: Binding to Panc-1 cells by flow cytometry with Cy3-labeled aptamers (KD). The arrangement: species or system human. The settings on record: Cy3 labeled aptamers 15.6-500 nM, MFI, one site binding non-linear regression; read-out: binding affinity (Kd). On the procedure:
Aptamer binding and uptake was also assessed by flow cytometry. For the assay, cells were detached using a non-enzymatic cell dissociation solution, washed with PBS and suspended in binding buffer. Next, Cy3-labeled aptamers were added and incubated for 1 hours at 37° C. The binding of individual aptamers for the starting pool as a control to pancreatic cancer cells was performed in triplicate. Flow cytometry was performed on a Cyan (Beckman Coulter counter) and Fortessa. The data were analyzed with FlowJo software.
To determine the binding affinity of aptamers to Panc-1, the median fluorescence intensity (MFI) of each concentrations was determined and subtracted the mean fluorescence background of controls from the corresponding MFI of aptamers described by Sefah et al^53. The dissociation constants were calculated using one site binding non-linear curve regression with a Graph Pad Prism (GraphPad Software, La Jolla, Calif., USA).
In general terms: Flow cytometry measures light scatter and fluorescence of single cells or particles in a stream.

Series [1] relates to pancreatic cell lines PANC-1, AsPC-1, MIA PaCa and Capan-1. The series can be described thus: Live cell confocal internalization in pancreatic cancer cell lines. The format is cell-based, human. To be noted: Cy3-labeled RNA 100 nM. The method, then: (§1) For the internalization, the cells were grown in 35 mm glass bottom dishes (MatTek, Ashland, Mass., USA) with seeding at 1×10^5 cells in medium for 24 hrs. The RNAs were labeled with Cy3 using the Cy3 Silencer siRNA labeling kit (Ambion, Tex., USA.). Cy3-labeled RNAs at 100 nM were added to the cells and incubated for 1 hour. The images were taken using a Zeiss LSM 510 Meta Inverted 2 photon confocal microscope system using a C-Apo 40×/1.2 NA Water immersion objective.

In series [2] the test system is Non pancreatic lines including Huh7, HepG2, MCF7 and PC3 cells. Briefly: Confocal internalization / cell binding in non pancreatic cancer lines. To be noted: Cy3-labeled RNA, liver, breast and prostate cancer lines. The format is cell-based. The method, then: as §1
The test system of series [3] is normal tissues such as liver, spleen, and kidney; T and B cells. Briefly: Staining of other normal tissues and T and B cells. The arrangement: species or system human. The settings on record: Cy3 labeled aptamer. The method, then:
FIG. 2A-2B. Histology (FIG. 2A) The representative images by histopathological screen in normal tissues. The samples were stained with Cy3 labeled aptamer P1 and P19 respectively. The sample sections were then examined under microscope at 100× magnification. Cy3-labeled RNA. (FIG. 2B) Flow cytometry analysis of P19 and P1 in T and B cells. Cy3-labeled RNAs were tested for binding to T and B cell isolated from human blood.

A further series concerns Panc-1 cells. The series can be described thus: Competition of Cy3 labeled P19 with unlabeled clones, confocal. To be noted: 200 nM Cy3 labeled P19, 1 μM unlabeled clone. The format is binding, human. On the procedure: For competition assays, 200 nM of Cy3 labeled P19 aptamer was used to compete with either unlabeled clones (1 μM). The fluorescence intensity was quantified in the presence of increasing amounts of competitors using confocal microscopy and analyzed statistically. One-way ANOVA was used for statistical significant analysis (P<0.05).

Series [4] has as its target T1, mortalin (mitochondrial Hsp70) (Homo sapiens, UniProt P38646). Briefly: Gel shift assay. The format is binding. The settings on record: native PAGE. From the text: (§2) P1 and P19 were labeled with biotin at the 3′ end. Target membrane proteins were isolated following procedures described by Daniels et al^26 or extracted by ProteoExtract Native Membrane protein Extraction Kit (Calbiochem). Agilent 6520 Q-TOF mass spectrometer used to identify aptamer retrieved proteins. A BIAcore T100 (GE Healthcare, Uppsala, Sweden) was used to measure binding by surface plasmon resonance (SPR) technique. BIAevaluation software (GE Healthcare) was used for analysis. Gel shift assay was also performed to validate the target ligand binding.

For series [5], the system named is human pancreatic cancer and normal pancreas tissue specimens. Briefly: Histopathology staining with Cy3 labeled aptamers, aptamer score. To be noted: for No. of Patients, Low (<7) staining / No. of Patients, Medium (>7 and <14) staining / No. of Patients, High (>14 and <20) staining: 72 patient samples; for No. of Patients, Low (<7) staining: aptamer score <7; for No. of Patients, Medium (>7 and <14) staining: aptamer score >7 and <14; for No. of Patients, High (>14 and <20) staining: aptamer score >14 and <20; for recognition of pancreatic cancer versus normal pancreas tissues: Cy3 labeled aptamer, histopathology; for Survival Period, High (>14 and <20) staining group / Survival Period, Low (<7) staining group / Survival Period, Medium (>7 and <14) staining group: Table 5, Mean ± SD. On the procedure:
The samples were stained by aptamer P1 and P19 respectively. We linked P1 and P19 with Cy3 as marker and DAPI stating was performed for cell nuclei as background. The sample sections were then examined under microscope at 100× magnification, and the aptamer content in each slide of pancreatic cancer was determined by measuring the average of positive-stained particle numbers in five independent fields randomly.
A total of 72 patients (45 male and 27 female) of pancreatic adenocarcinoma had undergone surgical intervention between January 2008 and December 2010 in National Taiwan University Hospital. Diagnosis was settled by pathologic analysis of specimen. All of the enrolled patients fulfilled the informed consent to receive the procedure, and this study was Institutional Review Board approved of NTUH.

Series [6] concerns the target T1, mortalin (mitochondrial Hsp70). Briefly: Surface plasmon resonance (BIAcore T100). The format is binding. To be noted: aptamer biotin-labeled at 3′ end immobilized on SA chip.
Excerpt: as §2
(SPR reads the build-up and loss of mass on a sensor chip optically.)

Series [7] has as its system gemcitabine-resistant ASPC-1 engrafted mice. The series can be described thus: Gemcitabine resistant AsPC-1 tumor in NOD/SCID mice. The format is in vivo. To be noted: tail vein, 4 injections at days 1, 3, 5, 7, sacrificed day 9. On the procedure:
For gemcitabine resistant tumour test, twelve 5-weeks-old female NOD/SCID mice were injected subcutaneously (S.C.) on the flank with 2.8×10^6 AsPC-1 pancreatic cancer cells in 0.05 ml PBS with 0.15 ml matrigel. After 3 weeks, mice were divided into four groups. One group served as untreated controls and the others injected with P1 (10 ug per injection), P19 (10 ug per injection) and P1 combined with P19 (5 ug of P1 with 5 ug of P19 per injection). Aptamer were injected through tail vein. Animals were injected 4 times at days 1, 3, 5, and 7, and were sacrificed at day 9.
To test chemoresistant tumor regression in mice, twelve 5-weeks-old female NOD/SCID mice were injected subcutaneously (S.C.) on the flank with 2.8×10^6 ASPC-1 gemcitabine resistant pancreatic cancer cells in 0.05 ml PBS with 0.15 ml matrigel. After 3 weeks, mice were divided into four groups. One group served as untreated controls and the others injected with P1, P19 and P1 combined with P19. Aptamer were injected through tail vein. Animals were injected 4 times at days 1, 3, 5, and 7, and were sacrificed at day 9.

The target in another series is T2, cell membrane proteins (Homo sapiens, UniProt P38646).
T2 construct: cell membrane proteins were retrieved by biotinylated aptamers; endogenous in cells
Briefly: Retrieval of cell membrane proteins by biotinylated aptamers and MASS-SPEC. To be noted: peptide matching fingerprinting.
Excerpt: as §2

T1 sequence (P38646 47-679): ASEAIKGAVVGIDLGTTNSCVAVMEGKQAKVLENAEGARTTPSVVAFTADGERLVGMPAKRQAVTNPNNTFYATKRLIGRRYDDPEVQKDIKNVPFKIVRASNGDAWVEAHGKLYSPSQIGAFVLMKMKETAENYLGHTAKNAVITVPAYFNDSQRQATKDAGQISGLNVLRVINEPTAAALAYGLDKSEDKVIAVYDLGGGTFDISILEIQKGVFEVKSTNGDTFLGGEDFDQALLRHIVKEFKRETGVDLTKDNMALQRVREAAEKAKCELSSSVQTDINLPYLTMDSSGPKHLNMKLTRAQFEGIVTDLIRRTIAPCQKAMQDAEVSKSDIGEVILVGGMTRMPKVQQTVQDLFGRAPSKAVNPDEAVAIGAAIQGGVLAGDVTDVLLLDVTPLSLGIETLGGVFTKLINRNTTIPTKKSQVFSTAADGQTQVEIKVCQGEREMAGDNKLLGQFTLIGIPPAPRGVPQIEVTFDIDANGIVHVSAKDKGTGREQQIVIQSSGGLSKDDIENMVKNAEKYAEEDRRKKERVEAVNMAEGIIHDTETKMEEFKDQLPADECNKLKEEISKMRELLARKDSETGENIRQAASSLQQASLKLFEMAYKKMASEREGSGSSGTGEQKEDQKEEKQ
T2 sequence (P38646 47-679): as above

As for `C#Cc1cccc(Nc2ncnc3cc(OCCOC)c(OCCOC)cc23)c1` [erlotinib], the “median added to overall survival” value in the series with pancreatic cancer (addition of erlotinib, randomized study) is on record as 11 days. Further, the survival benefit result with pancreatic cancer (phase III trial of erlotinib with gemcitabine, advanced disease) is reported as “marginal survival benefit”.

The term Kd denotes a measure of binding affinity in units of concentration. Regarding “truncated P19: P19 truncated to 28mer including the common motif GAAUGCCC, SEQ ID NO:1 (CUCAAUGGCGAAUGCCCGCCUAAUAGGG; listed as RNA, chemistry not fully specified)”, in the series on Panc-1, the Kd is 8.77 nM. In addition, in [1], the “internalization in pancreatic cancer cells” value was “internalized into Panc-1 and AsPC-1 cells”. Besides, the “internalization / binding in non pancreatic cancer lines” value in series [2] was “negative reaction”.

B1: P19: 2′F RNA aptamer selected by whole cell SELEX on Panc-1, SEQ ID NO:2 (nucleic acid)
chain: GGGAGACAAGAAUAAACGCUCAAUGGCGAAUGCCCGCCUAAUAGGGCGUUAUGACUUGUUGAGUUCGACAGGAGGCUCACAACAGGC
modifications: all phosphodiester, sugars by position and methylation of C not given here; 2'-fluoro modified RNA
Turning to B1, the “staining of other normal tissues including T and B cells” value in [3] is “negative staining”. Also, in the series on Panc-1 cells, the “fluorescence intensity of labeled P19 in presence of unlabeled competitor” value was “significantly decreased”. The dissociation constant Kd in the series on Panc-1 is 13.1 nM. Besides, the gel shift result in series [4] was “shifted band was observed”. In series [5], the “No. of Patients, Low (<7) staining” value worked out at 3; the “No. of Patients, Medium (>7 and <14) staining” value came out at 26; the “No. of Patients, High (>14 and <20) staining” value turned out to be 43; the “recognition of pancreatic cancer versus normal pancreas tissues” value is “recognized pancreatic cancer tissues specifically, not normal pancreas tissues”. In series [5], the “Survival Period, High (>14 and <20) staining group” value is recorded as 13.0 ± 4.29; the “Survival Period, Low (<7) staining group” value is on record as 21.0 ± 2.64; the “Survival Period, Medium (>7 and <14) staining group” value is 15.6 ± 3.30. Moreover, the “binding by SPR” value in series [6] is listed as “bound to the mortalin”. Further, the “anti-tumor effect of aptamers only (tumor size)” value in series [7] is on record as “anti-tumor effects in gemcitabine resistance tumour cells significantly”. Further, the “internalization in pancreatic cancer cells” value in series [1] is reported as “punctate regions of Cy3 labeling”. In addition, the target ligand identified entry with cell membrane proteins is “mitochondrial Hsp70 which is mortalin”. In series [2], the “internalization / binding in non pancreatic cancer lines” value is given as “No Cy3 signal was observed”.

B2: P1: 2′F RNA aptamer selected by whole cell SELEX on Panc-1, SEQ ID NO:4 (nucleic acid)
chain: GGGAGACAAGAAUAAACGCUCAAUGCGCUGAAUGCCCAGCCGUGAAAGCGUCGAUUUCCAUCCUUCGACAGGAGGCUCACAACAGGC
modifications: all phosphodiester, sugars by position and methylation of C not given here; 2'-fluoro modified RNA
Take B2: in series [3], the “staining of other normal tissues including T and B cells” value is “negative staining”. Moreover, the Kd in the series on Panc-1 was determined as 2.2 nM. Moreover, the gel shift entry in series [4] is “shifted band was observed”. Also, in series [5], the “survival period, medium level group” value is 15.9±3.17 months; the “No. of Patients, Low (<7) staining” value was 3; the “No. of Patients, Medium (>7 and <14) staining” value is 26; the “No. of Patients, High (>14 and <20) staining” value is given as 43. In [5], the “recognition of pancreatic cancer versus normal pancreas tissues” value is listed as “recognized pancreatic cancer tissues specifically, not normal pancreas tissues”; the “Survival Period, High (>14 and <20) staining group” value turned out to be 13.1 ± 4.36; the “Survival Period, Low (<7) staining group” value amounted to 21.0 ± 2.64; the “Survival Period, Medium (>7 and <14) staining group” value amounted to 15.9 ± 3.17. Also, the “binding by SPR” value in series [6] is recorded as “bound to the mortalin”. For the same molecule, the “anti-tumor effect of aptamers only (tumor size)” value in series [7] is recorded as “anti-tumor effects in gemcitabine resistance tumour cells significantly”. In addition, in [1], the “internalization in pancreatic cancer cells” value is given as “punctate regions of Cy3 labeling”. Besides, in the series with cell membrane proteins, the target ligand identified entry is “mitochondrial Hsp70 which is mortalin”. Moreover, the “internalization / binding in non pancreatic cancer lines” value in [2] is “No Cy3 signal was observed”.
